Our source for the stoichiometry N values is article PMC7292776.

This experiment addresses typhoid toxin PltB homopentamer (S. Typhi PltB, wild type) (Salmonella enterica serovar Typhi) (UniProt Q8Z6A3). In words: crystal structure.

“typhoid toxin PltB homopentamer (S. Typhi PltB, wild type) (from UniProt Q8Z6A3 1-137) (natural protein)” had a stoichiometry N of 5.
